# Results taken from article doi:10.1101/478511 (bioRxiv, 2018).
# Target: WT His-BRCA1(1-500)-BARD1(27-327) heterodimer (UniProt P38398 1-500; Q99728 27-327)
# Assay: pull-down
# WT His-BRCA1(1-500)-BARD1(27-327) heterodimer, sequence (P38398 1-500, chain 1 of 2): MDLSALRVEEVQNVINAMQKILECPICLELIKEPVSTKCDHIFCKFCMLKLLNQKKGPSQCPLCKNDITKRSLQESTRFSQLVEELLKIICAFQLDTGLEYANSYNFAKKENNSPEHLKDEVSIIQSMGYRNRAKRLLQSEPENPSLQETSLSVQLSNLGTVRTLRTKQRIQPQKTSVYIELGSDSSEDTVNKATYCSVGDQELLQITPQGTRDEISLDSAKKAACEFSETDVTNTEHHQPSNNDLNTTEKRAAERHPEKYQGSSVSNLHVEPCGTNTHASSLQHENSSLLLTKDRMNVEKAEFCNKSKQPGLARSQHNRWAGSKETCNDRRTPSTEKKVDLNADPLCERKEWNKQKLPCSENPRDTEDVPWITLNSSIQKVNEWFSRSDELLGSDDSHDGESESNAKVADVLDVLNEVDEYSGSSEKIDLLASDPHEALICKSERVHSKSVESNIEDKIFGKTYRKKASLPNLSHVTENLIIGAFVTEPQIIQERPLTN
# WT His-BRCA1(1-500)-BARD1(27-327) heterodimer, sequence (Q99728 27-327, chain 2 of 2): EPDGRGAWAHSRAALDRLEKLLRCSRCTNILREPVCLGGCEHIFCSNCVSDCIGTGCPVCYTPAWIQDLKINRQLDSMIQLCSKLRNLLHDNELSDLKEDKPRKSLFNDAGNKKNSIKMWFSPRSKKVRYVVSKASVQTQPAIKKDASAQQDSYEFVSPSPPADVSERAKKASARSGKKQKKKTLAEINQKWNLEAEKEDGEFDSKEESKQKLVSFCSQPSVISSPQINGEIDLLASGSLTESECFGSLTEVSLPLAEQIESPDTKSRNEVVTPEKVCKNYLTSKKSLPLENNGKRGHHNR
binder,measurement,value
Human recombinant RAD51 (Abcam) (natural protein) MAMQMQLEANADTSVEEESFGPQPISRLEQCGINANDVKKLEEAGFHTVEAVAYAPKKELINIKGISEAKADKILAEAAKLVPMGFTTATEFHQRRSEIIQITTGSKELDKLLQGGIETGSITEMFGEFRTGKTQICHTLAVTCQLPIDRGGGEGKAMYIDTEGTFRPERLLAVAERYGLSGSDVLDNVAYARAFNTDHQTQLLYQASAMMVESRYALLIVDSATALYRTDYSGRGELSARQMHLARFLRMLLRLADEFGVAVVITNQVVAQVDGAAMFAADPKKPIGGNIIAHASTTRLYLRKGRGETRICKIYDSPCLPEAEAMFAINADGVGDAKD,binding result,binds
